The labels stand for the following.
B1: MIF4G domain-containing protein (Homo sapiens), A9UHW6 (parent)
chain: MGEPSREEYKIQSFDAETQQLLKTALKDPGAVDLEKVANVIVDHSLQDCVFSKEAGRMCYAIIQAESKQAGQSVFRRGLLNRLQQEYQAREQLRARSLQGWVCYVTFICNIFDYLRVNNMPMMALVNPVYDCLFRLAQPDSLSKEEEVDCLVLQLHRVGEQLEKMNGQRMDELFVLIRDGFLLPTGLSSLAQLLLLEIIEFRAAGWKTTPAAHKYYYSEVSD

The test covers variants of B1. Particulars: with slbp_human SLBP.
As to K10A, the “effect of a mutation on the interaction” value is listed as “with no effect”.

H44A: the “effect of a mutation on the interaction” value is “with no effect”.

On to R202A, for which the “effect of a mutation on the interaction” value is reported as “disrupting interaction”.

For the variant E200A, the “effect of a mutation on the interaction” value is “increasing interaction”.

Consider Q64A, for which the “effect of a mutation on the interaction” value is reported as “with no effect”.

As for F75A, the “effect of a mutation on the interaction” value is recorded as “with no effect”.

As to E7A, the “effect of a mutation on the interaction” value is “with no effect”.

With Y60A, the “effect of a mutation on the interaction” value was “with no effect”.

Take R82A: the “effect of a mutation on the interaction” value is “with no effect”.

For R57A, the “effect of a mutation on the interaction” value is recorded as “with no effect”.

On to R76A, for which the “effect of a mutation on the interaction” value is on record as “with no effect”.

As for R157A, the “effect of a mutation on the interaction” value is recorded as “with no effect”.
